Measurements from paper PMC3673817.

Target: FLAG-tagged full length EEA1 (Early endosomal autoantigen 1) (human) (UniProt Q15075)
Experiment: SPR; EEA1-FLAG amine-coupled to a CM5 chip (~2,000 RU), Biacore 2000, 25°C; E2 injected at 2.5 to 160 μM, 20 μL/min, in 10 mM Hepes pH 7.4, 150 mM NaCl, 3 mM EDTA, 0.005% surfactant P20; response plotted against the E2 concentration

UniProt Q15075, sequence (Q15075 whole entry): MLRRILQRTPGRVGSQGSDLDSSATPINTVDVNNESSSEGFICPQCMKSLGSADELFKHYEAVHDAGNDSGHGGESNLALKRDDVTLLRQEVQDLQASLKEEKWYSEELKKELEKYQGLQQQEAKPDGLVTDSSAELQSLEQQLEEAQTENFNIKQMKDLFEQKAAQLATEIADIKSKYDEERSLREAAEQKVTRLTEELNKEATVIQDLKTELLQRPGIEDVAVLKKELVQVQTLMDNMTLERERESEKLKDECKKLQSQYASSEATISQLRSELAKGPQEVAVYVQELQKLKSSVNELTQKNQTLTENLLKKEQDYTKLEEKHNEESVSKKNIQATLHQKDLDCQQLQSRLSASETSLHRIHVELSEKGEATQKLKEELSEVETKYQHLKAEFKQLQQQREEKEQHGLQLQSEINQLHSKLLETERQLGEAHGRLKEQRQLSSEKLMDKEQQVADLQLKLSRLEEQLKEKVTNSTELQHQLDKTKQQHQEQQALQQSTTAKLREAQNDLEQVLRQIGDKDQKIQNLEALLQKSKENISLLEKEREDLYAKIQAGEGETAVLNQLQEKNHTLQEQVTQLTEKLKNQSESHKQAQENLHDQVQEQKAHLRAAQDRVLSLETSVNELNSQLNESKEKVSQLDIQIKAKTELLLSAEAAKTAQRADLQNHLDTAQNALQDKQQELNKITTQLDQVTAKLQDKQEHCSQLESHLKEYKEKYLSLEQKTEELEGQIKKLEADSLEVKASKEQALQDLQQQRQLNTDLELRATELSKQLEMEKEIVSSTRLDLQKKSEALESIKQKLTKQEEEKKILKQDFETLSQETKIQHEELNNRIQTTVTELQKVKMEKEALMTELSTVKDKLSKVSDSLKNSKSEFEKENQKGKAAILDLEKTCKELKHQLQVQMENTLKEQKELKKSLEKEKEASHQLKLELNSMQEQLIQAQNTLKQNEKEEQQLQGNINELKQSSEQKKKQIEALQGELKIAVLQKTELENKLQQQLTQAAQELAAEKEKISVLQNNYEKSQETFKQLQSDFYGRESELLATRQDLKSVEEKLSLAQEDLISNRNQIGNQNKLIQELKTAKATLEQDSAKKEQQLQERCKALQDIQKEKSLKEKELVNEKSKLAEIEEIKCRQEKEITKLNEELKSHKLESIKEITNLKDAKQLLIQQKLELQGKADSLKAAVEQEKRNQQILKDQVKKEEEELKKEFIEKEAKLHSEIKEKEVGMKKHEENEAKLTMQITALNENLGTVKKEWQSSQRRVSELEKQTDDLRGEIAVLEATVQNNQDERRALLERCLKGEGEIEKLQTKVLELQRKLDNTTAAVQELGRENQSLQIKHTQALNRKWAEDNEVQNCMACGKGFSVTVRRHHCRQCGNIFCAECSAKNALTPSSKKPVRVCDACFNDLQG

Substance “Ube2A (HR6a) (from UniProt P49459 1-152) (enzyme; other documents disagree on this pair)” has a Kd of 9.7 µM.
